Experimental data: patent publication US20030130484A1, “Inhibitors and disassemblers of fibrillogenesis” (priority 2001, published 2003)

Molecular target: human Aβ1-40 peptide (human)
Experiment: cell-based or functional assay

Sequence of human Aβ1-40 peptide (human) (peptide, as listed by the source): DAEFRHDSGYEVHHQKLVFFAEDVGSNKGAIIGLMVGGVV

| Substance | IC50 of inhibition of Aβ40 fibrillogenesis (inhibitor:Aβ ratio) | Inhibition of Fibrillogenesis IC50 (thioflavin fluorescence) (inhibitor:Aβ40 molar ratio) | Inhibition of Fibrillogenesis ICmax | Inhibition of Fibrilogenesis IC50 (µM) | Inhibition of Fibrilogenesis ICmax (%) | percent inhibition of fibrillogenesis at concentrations at which Aβ16-22m inhibited completely |
| --- | --- | --- | --- | --- | --- | --- |
| Ac-Aβ16-22 (Peptide VI) | 10 | 8.4 | 100% | 8.4 µM | 100% | – |
| Anth-Aβ16-20 (peptide) | – | – | – | 0.3 µM | 100% | – |
| Aβ16-22 (peptide) | – | 1.1 | 23% | 1.1 µM | 23% | 10 to 20% |
